Test results as given in patent publication US20200330553A1 (BRIGHAM AND WOMEN S HOSPITAL, published 2020).
Numbering of substitutions follows the chain as printed. Numbers in names are those of the source.

Legend:
[1] = target: T1, FLAG-sortilin full-length (Full) (human, UniProt Q99523 81-831); test: TR-FRET and HTRF on HEK293 cells, anti-FLAG(M2)-Cryptate and anti-6HIS-XL665
T1 construct: signal peptide 1-33 is implied by that; Expressed in HEK293 cells; also called FLAG-sortilin WT; FLAG-sortilin wild-type
T1 sequence: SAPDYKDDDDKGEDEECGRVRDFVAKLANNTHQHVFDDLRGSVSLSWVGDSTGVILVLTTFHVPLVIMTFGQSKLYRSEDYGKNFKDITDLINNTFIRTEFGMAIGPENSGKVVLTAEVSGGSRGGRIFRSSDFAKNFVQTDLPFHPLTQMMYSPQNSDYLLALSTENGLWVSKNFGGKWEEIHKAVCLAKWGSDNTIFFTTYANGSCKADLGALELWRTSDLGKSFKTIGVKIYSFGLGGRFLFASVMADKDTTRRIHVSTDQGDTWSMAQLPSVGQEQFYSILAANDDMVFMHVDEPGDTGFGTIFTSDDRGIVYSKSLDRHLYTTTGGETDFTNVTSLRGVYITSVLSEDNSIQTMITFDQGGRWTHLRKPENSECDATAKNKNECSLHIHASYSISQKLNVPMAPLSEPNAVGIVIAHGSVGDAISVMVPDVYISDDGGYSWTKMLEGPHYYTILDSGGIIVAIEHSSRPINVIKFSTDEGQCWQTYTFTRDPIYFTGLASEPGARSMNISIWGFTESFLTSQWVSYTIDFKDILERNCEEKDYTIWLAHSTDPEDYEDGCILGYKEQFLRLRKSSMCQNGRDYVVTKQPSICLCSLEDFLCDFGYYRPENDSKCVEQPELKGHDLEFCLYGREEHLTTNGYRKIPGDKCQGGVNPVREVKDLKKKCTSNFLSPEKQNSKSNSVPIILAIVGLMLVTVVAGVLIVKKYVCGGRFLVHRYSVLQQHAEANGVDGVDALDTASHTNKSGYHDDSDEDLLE
Experimental: TR-FRET and HTRF were performed as described (26). FLAG-sortilin Full HEK293 cells were harvested using dissociation solution (e.g., from Sigma Aldrich, Cat#C5914) 24 hours after transfection of 6×His-sortilin expression vector. An incubation under the circle rotator was performed at 4° C. with 1×10^6 cells/mL for TR-FRET and 2×10^6 cells/mL for HTRF containing 1 nmol/L Anti-FLAG® (M2)-Cryptate (Cisbio Bioassays, Cat#61FG2KLA, Lot#25A) and 3 nmol/L Anti-6HIS-XL665 (Cisbio Bioassays, Cat#61HISXLA, Lot#56A) in PBS supplemented with 25% FBS. For TR-FRET, cells were centrifuged at 1,000 rpm for 5 min to remove the antibodies, and resuspended in PBS, and applied into a 96-well white plate. For HTRF, cells were applied without removing the antibodies into a 96-well white plate. Then, the plate was read (excitation: 320 nm, emission: 620 nm (cutoff 570 nm), 665 nm (cutoff 630 nm), Delay […], Integration […]). The FRET signal was calculated as (the ratio of counts per seconds 665:620)×10,000, and % change of the FRET signal by 6×His-sortilin expression was expressed.

[2] = target: the molecule itself; test: non-reducing western blot, HEK293 cells and EVs
Source text: Next, the intermolecular disulfide bond was examined in the intracellular domain. Since sortilin has only one cysteine (Cys⁷⁸³) in the intracellular domain, the cysteine was expected to form an intermolecular disulfide bond for dimerization in the intracellular domain. Cys⁷⁸³ was replaced by alanine (C783A) in 6×His-sortilin ICD+TMD and FLAG-sortilin Full (FIG. 5A). […] The homodimers of low molecular weight were mainly transported to EVs, while homodimers of high molecular weight and multimers were mainly not transported to EVs (FIG. 5D). […] Since Cys⁷⁸³ was reported to be palmitoylated (22), the connection between palmitoylation and intermolecular disulfide bond was studied by incubating FLAG-sortilin HEK293 cells with an inhibitor of palmitoylation, 2-fluoropalmitic acid (2-FPA) (22), which increased only homodimers of lower molecular size in the cells (FIG. 5E).
Cells, EVs and the supernatant of culture medium were lysed with IP lysis buffer (Thermo Fisher Scientific Inc., Cat#87787) containing protease inhibitor (Roche Diagnostics, Cat#04693159001). Protein concentration was measured using the bicinchoninic acid (BCA) method (Thermo Fisher Scientific Inc., Cat#23225). Laemmli buffer (Boston Bioproduct; non-reducing, Cat#BP-110NR; reducing, Cat#BP-111R) was added to the lysate, and boiled at 95° C. for 5 minutes.

[3] = target: the molecule itself; test: MG-132, anti-FLAG immunoprecipitation, non-reducing western blot
Experimental: FLAG-sortilin Full and ECD+TMD forms homodimers and multimers. Empty vector was used as control. […] MG-132 increased FLAG-sortilin ICD+TMD in a time and concentration-dependent manner. […] Monomers, homodimers and multimers are abbreviated as MO, D and MU, respectively. IB, immunoblotting.
Cells or EVs were lysed in IP lysis buffer. Anti-FLAG M2 antibody (5 μg) or mouse IgG (5 lig, R&D Systems, Cat#MAB002, Lot# IX2415091) were incubated with Dynabeads with Protein G (Thermo Fisher Scientific Inc., Cat#10004D) by rotation for overnight at 4° C. Cell lysate was incubated for 4 hours at 4° C. under rotating conditions. The bead-antibody-protein complex was washed with PBS 3 times. Then, Laemmli buffer was added to the precipitates for SDS-PAGE.

B1: 6×His-sortilin full-length (Full) (receptor)
chain: SAPHHHHHHGEDEECGRVRDFVAKLANNTHQHVFDDLRGSVSLSWVGDSTGVILVLTTFHVPLVIMTFGQSKLYRSEDYGKNFKDITDLINNTFIRTEFGMAIGPENSGKVVLTAEVSGGSRGGRIFRSSDFAKNFVQTDLPFHPLTQMMYSPQNSDYLLALSTENGLWVSKNFGGKWEEIHKAVCLAKWGSDNTIFFTTYANGSCKADLGALELWRTSDLGKSFKTIGVKIYSFGLGGRFLFASVMADKDTTRRIHVSTDQGDTWSMAQLPSVGQEQFYSILAANDDMVFMHVDEPGDTGFGTIFTSDDRGIVYSKSLDRHLYTTTGGETDFTNVTSLRGVYITSVLSEDNSIQTMITFDQGGRWTHLRKPENSECDATAKNKNECSLHIHASYSISQKLNVPMAPLSEPNAVGIVIAHGSVGDAISVMVPDVYISDDGGYSWTKMLEGPHYYTILDSGGIIVAIEHSSRPINVIKFSTDEGQCWQTYTFTRDPIYFTGLASEPGARSMNISIWGFTESFLTSQWVSYTIDFKDILERNCEEKDYTIWLAHSTDPEDYEDGCILGYKEQFLRLRKSSMCQNGRDYVVTKQPSICLCSLEDFLCDFGYYRPENDSKCVEQPELKGHDLEFCLYGREEHLTTNGYRKIPGDKCQGGVNPVREVKDLKKKCTSNFLSPEKQNSKSNSVPIILAIVGLMLVTVVAGVLIVKKYVCGGRFLVHRYSVLQQHAEANGVDGVDALDTASHTNKSGYHDDSDEDLLE
notes: 6×His inserted after Ser78-Ala79-Pro80; Written as the form after propeptide cleavage; also called 6×His-sortilin WT; 6×His-sortilin wild-type
B1: binds [1].

B2: FLAG-sortilin C783A (receptor)
chain: T1 sequence with C714A
notes: also called C783A mutant
B2: binds [2].

B3: FLAG-sortilin ICD+TMD (receptor)
chain: SAPDYKDDDDKNSVPIILAIVGLMLVTVVAGVLIVKKYVCGGRFLVHRYSVLQQHAEANGVDGVDALDTASHTNKSGYHDDSDEDLLE
notes: written as the form after propeptide cleavage
B3: binds [3].
